Results published in article PMC2920134 (The Journal of neuroscience : the official journal of the …, 2010).
Where two headings read alike, the source gives them in different places. Blank lines part the entries; values can stand above or below the binder they belong to.

Experiments:
Experiment in all cases: pull-down
[1] = molecular target: T1, His6-tagged NSF (AA 1-744) (mouse, UniProt P46460 1-744)
[2] = molecular target: His6-tagged Arr1 (mouse, UniProt P20443 1-403)
[3] = molecular target: T1, His6-tagged NSF (AA 1-744); remark: listed apart in the source
[4] = molecular target: His6-tagged NSF truncated segment (AA 197-744) (mouse, UniProt P46460 197-744)
Chain of His6-tagged NSF truncated segment (AA 197-744) (P46460 197-744): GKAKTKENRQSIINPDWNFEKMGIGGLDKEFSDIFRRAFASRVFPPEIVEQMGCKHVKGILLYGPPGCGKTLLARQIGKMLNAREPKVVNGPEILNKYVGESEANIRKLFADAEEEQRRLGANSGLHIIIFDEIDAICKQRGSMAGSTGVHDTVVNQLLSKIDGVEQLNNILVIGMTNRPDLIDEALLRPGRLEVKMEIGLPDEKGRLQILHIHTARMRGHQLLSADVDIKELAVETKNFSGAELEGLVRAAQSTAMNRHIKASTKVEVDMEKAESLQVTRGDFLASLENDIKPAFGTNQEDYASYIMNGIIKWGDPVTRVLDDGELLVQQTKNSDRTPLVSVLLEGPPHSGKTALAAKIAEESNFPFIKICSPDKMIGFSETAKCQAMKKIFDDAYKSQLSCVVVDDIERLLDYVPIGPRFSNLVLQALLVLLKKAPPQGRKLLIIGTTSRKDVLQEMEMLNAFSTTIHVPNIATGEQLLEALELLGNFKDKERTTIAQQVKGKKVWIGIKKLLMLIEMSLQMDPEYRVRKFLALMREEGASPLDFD

binding result [1]: binds
B1: GST-tagged truncated Arr1 [AA 1-191] (domain or fragment, mouse, UniProt P20443 1-191, looked up)
chain: MAACGKTNKSHVIFKKVSRDKSVTIYLGKRDYVDHVSQVEPVDGVVLVDPELVKGKKVYVTLTCAFRYGQEDIDVMGLTFRRDLYFSRVQVYPPVGAMSVLTQLQESLLKKLGDNTYPFLLTFPDYLPCSVMLQPAPQDVGKSCGVDFEVKAFASDITDPEEDKIPKKSSVRLLIRKVQHAPPEMGPQPSA

binding result [2]: binds
B2: GST-tagged NSF (AA 1-250) (domain or fragment, mouse, UniProt P46460 1-250, looked up)
chain: MAGRTMQAARCPTDELSLSNCAVVNEKDFQSGQHVMVRTSPNHKYIFTLRTHPSVVPGCIAFSLPQRKWAGLSIGQDIEVALYSFDKAKQCIGTMTIEIDFLQKKNIDSNPYDTDKMAAEFIQQFNNQAFSVGQQLVFSFNDKLFGLLVKDIEAMDPSILKGEPASGKRQKIEVGLVVGNSQVAFEKAENSSLNLIGKAKTKENRQSIINPDWNFEKMGIGGLDKEFSDIFRRAFASRVFPPEIVEQMGC

binding result [1]: binds
B3: GST-tagged truncated Arr1 [AA 1-370] (domain or fragment, mouse, UniProt P20443 1-370, looked up)
chain: MAACGKTNKSHVIFKKVSRDKSVTIYLGKRDYVDHVSQVEPVDGVVLVDPELVKGKKVYVTLTCAFRYGQEDIDVMGLTFRRDLYFSRVQVYPPVGAMSVLTQLQESLLKKLGDNTYPFLLTFPDYLPCSVMLQPAPQDVGKSCGVDFEVKAFASDITDPEEDKIPKKSSVRLLIRKVQHAPPEMGPQPSAEASWQFFMSDKPLNLSVSLSKEIYFHGEPIPVTVTVTNNTDKVVKKIKVSVEQIANVVLYSSDYYVKPVASEETQEKVQPNSTLTKTLVLVPLLANNRERRGIALDGKIKHEDTNLASSTIIKEGIDRTVMGILVSYHIKVKLTVSGFLGELTSSEVATEVPFRLMHPQPEDPAKESVQ

binding result [3]: binds
binding result [4]: binds
B4: GST-tagged Arr1 [AA 1-403] (natural protein, mouse, UniProt P20443 1-403, looked up)
chain: MAACGKTNKSHVIFKKVSRDKSVTIYLGKRDYVDHVSQVEPVDGVVLVDPELVKGKKVYVTLTCAFRYGQEDIDVMGLTFRRDLYFSRVQVYPPVGAMSVLTQLQESLLKKLGDNTYPFLLTFPDYLPCSVMLQPAPQDVGKSCGVDFEVKAFASDITDPEEDKIPKKSSVRLLIRKVQHAPPEMGPQPSAEASWQFFMSDKPLNLSVSLSKEIYFHGEPIPVTVTVTNNTDKVVKKIKVSVEQIANVVLYSSDYYVKPVASEETQEKVQPNSTLTKTLVLVPLLANNRERRGIALDGKIKHEDTNLASSTIIKEGIDRTVMGILVSYHIKVKLTVSGFLGELTSSEVATEVPFRLMHPQPEDPAKESVQDENLVFEEFARQNLKDTGENTEGKKDEDAGQDE
